Experiments:
Assay in all cases: holdup assay
Design in all cases: key: below the threshold = too weak to quantify, mostly under pKd 3.1 to 4
Conditions in all cases: plain residues with an end cap or a label only (N-terminal biotin on a linker: ado-ado)
GRASP, Q7Z6J2 = molecular target: GRASP, Q7Z6J2
RAPGEF6, Q8TEU7 = molecular target: T1, RAPGEF6, Q8TEU7
T1 sequence (Q8TEU7 525-625, limits assumed, looked up): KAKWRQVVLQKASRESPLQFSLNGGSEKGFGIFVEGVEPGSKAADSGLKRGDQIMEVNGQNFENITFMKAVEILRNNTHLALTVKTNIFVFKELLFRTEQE

HTRA4, P83105 = molecular target: T2, HTRA4, P83105
T2 sequence (P83105 378-476, limits assumed, looked up): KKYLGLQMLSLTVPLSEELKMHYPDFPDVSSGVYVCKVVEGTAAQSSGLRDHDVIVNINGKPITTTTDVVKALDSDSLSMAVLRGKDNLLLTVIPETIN

MPP6, Q9NZW5 = molecular target: T3, MPP6, Q9NZW5
T3 sequence (Q9NZW5 125-219, limits assumed, looked up): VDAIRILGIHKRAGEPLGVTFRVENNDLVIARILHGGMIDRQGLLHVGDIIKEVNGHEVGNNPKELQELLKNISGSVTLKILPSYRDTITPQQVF

NHERF2_2, Q15599 = molecular target: NHERF2_2, Q15599
NHERF2_2, Q15599, sequence (Q15599 142-238): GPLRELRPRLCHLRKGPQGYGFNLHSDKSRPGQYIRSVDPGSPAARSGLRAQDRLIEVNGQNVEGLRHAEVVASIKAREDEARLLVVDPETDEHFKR

LNX2_2, Q8N448 = molecular target: T4, LNX2_2, Q8N448
T4 sequence (Q8N448 334-432, limits assumed, looked up): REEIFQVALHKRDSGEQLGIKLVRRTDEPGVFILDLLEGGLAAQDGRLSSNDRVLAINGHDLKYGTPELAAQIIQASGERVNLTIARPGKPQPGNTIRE

Inadl_2, Q8NI35 = molecular target: Inadl_2, Q8NI35
Inadl_2, Q8NI35, sequence (Q8NI35 238-335): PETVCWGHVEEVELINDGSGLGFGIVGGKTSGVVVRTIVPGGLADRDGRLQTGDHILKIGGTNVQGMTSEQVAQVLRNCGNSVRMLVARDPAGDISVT

SNTB1, Q13884 = molecular target: T5, SNTB1, Q13884
T5 sequence (Q13884 107-205, limits assumed, looked up): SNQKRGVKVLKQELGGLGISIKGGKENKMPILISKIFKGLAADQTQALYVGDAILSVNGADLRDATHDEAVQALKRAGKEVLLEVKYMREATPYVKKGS

APBA1_2, Q02410 = molecular target: T6, APBA1_2, Q02410
T6 sequence (Q02410 742-832, limits assumed, looked up): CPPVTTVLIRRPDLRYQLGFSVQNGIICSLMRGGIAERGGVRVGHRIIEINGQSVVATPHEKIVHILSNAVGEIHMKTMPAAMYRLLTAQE

DLG3_3, Q92796 = molecular target: T7, DLG3_3, Q92796
T7 sequence (Q92796 374-475, limits assumed, looked up): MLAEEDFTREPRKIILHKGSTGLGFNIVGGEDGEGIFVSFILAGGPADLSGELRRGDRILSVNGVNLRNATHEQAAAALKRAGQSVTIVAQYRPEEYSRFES

GRIP1_7, Q9Y3R0 = molecular target: T8, GRIP1_7, Q9Y3R0
T8 sequence (Q9Y3R0 999-1096, limits assumed, looked up): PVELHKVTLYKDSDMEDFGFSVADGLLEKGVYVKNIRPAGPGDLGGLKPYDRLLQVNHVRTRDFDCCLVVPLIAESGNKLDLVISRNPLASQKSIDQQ

DLG4_1, P78352 = molecular target: DLG4_1, P78352
DLG4_1, P78352, sequence (P78352 62-152): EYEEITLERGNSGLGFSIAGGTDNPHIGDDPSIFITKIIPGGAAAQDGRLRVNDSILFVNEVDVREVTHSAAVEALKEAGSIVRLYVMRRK

TJP1_3, Q07157 = molecular target: TJP1_3, Q07157
TJP1_3, Q07157, sequence (Q07157 416-512): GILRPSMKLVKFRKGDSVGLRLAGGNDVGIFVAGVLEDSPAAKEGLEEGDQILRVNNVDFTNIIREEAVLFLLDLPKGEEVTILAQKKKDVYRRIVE

NHERF4_1, Q86UT5-2 = molecular target: NHERF4_1, Q86UT5-2
NHERF4_1, Q86UT5-2, sequence (Q86UT5 other isoform, or with tags, fused parts or gaps): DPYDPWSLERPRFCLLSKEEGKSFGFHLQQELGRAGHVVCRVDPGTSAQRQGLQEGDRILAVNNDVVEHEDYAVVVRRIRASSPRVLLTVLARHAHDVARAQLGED

NHERF4_4, Q86UT5 = molecular target: NHERF4_4, Q86UT5
NHERF4_4, Q86UT5, sequence (Q86UT5 464-550): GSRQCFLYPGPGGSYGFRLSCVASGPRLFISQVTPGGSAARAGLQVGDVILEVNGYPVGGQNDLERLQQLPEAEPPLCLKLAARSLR

PICK1, Q9NRD5 = molecular target: PICK1, Q9NRD5
PICK1, Q9NRD5, sequence (Q9NRD5 17-115): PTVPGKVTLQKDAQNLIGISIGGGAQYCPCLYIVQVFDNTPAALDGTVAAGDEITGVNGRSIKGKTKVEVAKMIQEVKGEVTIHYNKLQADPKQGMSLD

GRID2IP_1, A4D2P6 = molecular target: GRID2IP_1, A4D2P6
GRID2IP_1, A4D2P6, sequence (A4D2P6 1-87): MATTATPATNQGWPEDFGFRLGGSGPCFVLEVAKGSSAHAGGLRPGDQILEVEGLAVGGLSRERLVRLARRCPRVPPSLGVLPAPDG

NOS1, P29475 = molecular target: NOS1, P29475
NOS1, P29475, sequence (P29475 9-101): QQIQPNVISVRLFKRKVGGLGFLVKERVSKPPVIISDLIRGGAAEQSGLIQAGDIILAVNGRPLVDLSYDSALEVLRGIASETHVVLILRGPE

LIN7A, O14910 = molecular target: T9, LIN7A, O14910
T9 sequence (O14910 103-200, limits assumed, looked up): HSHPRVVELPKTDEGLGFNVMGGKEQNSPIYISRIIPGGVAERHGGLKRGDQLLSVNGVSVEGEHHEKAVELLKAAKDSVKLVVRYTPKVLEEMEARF

APBA1_1, Q02410 = molecular target: T10, APBA1_1, Q02410
T10 sequence (Q02410 651-752, limits assumed, looked up): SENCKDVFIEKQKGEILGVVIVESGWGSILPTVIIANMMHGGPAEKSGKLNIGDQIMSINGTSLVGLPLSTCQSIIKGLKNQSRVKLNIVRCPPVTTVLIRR

Inadl_9, Q8NI35 = molecular target: Inadl_9, Q8NI35
Inadl_9, Q8NI35, sequence (Q8NI35 1530-1615): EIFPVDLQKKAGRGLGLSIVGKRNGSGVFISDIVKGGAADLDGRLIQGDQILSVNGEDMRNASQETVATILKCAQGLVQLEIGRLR

ARHGAP21, Q5T5U3 = molecular target: T11, ARHGAP21, Q5T5U3
T11 sequence (Q5T5U3 45-169, limits assumed, looked up): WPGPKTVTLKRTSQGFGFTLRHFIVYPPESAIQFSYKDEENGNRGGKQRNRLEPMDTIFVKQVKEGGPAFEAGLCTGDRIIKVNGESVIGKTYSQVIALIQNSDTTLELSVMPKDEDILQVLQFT

MAGI1_1, Q96QZ7 = molecular target: MAGI1_1, Q96QZ7
MAGI1_1, Q96QZ7, sequence (Q96QZ7 1-106): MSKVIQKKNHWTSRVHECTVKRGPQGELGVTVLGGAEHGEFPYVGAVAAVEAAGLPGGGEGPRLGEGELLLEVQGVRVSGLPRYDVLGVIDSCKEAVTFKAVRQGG

TJP2_1, Q9UDY2 = molecular target: TJP2_1, Q9UDY2
TJP2_1, Q9UDY2, sequence (Q9UDY2 24-128): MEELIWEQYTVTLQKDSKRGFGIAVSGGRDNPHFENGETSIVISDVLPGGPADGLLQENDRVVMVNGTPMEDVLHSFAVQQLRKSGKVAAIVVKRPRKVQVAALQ

TJP3_3, O95049 = molecular target: T12, TJP3_3, O95049
T12 sequence (O95049 375-456, limits assumed, looked up): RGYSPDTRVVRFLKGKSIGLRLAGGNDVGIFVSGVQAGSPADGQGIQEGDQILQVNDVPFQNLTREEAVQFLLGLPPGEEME

GRASP, Q7Z6J2, sequence (Q7Z6J2 96-193): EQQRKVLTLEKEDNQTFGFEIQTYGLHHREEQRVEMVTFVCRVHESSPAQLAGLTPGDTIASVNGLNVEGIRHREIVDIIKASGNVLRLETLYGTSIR

| Binder | pKd (GRASP, Q7Z6J2) | pKd (RAPGEF6, Q8TEU7) | pKd (HTRA4, P83105) | pKd (MPP6, Q9NZW5) | pKd (NHERF2_2, Q15599) | pKd (LNX2_2, Q8N448) | pKd (Inadl_2, Q8NI35) | pKd (SNTB1, Q13884) | pKd (APBA1_2, Q02410) | pKd (DLG3_3, Q92796) | pKd (GRIP1_7, Q9Y3R0) | pKd (DLG4_1, P78352) | pKd (TJP1_3, Q07157) | pKd (NHERF4_1, Q86UT5-2) | pKd (NHERF4_4, Q86UT5) | pKd (PICK1, Q9NRD5) | pKd (GRID2IP_1, A4D2P6) | pKd (NOS1, P29475) | pKd (LIN7A, O14910) | pKd (APBA1_1, Q02410) | further results |
| --- | --- | --- | --- | --- | --- | --- | --- | --- | --- | --- | --- | --- | --- | --- | --- | --- | --- | --- | --- | --- | --- |
| EWTDERQSKV [GAB3, Q8WWW8] | 3.84 | below the threshold | below the threshold | below the threshold | 3.8 | below the threshold | below the threshold | 4.62 | 3.63 | 3.9 | below the threshold | 3.79 | below the threshold | below the threshold | below the threshold | below the threshold | below the threshold | below the threshold | below the threshold | below the threshold | pKd (Inadl_9, Q8NI35): 3.56; pKd (ARHGAP21, Q5T5U3): 4.07; pKd (MAGI1_1, Q96QZ7): below the threshold; pKd (TJP2_1, Q9UDY2): below the threshold; pKd (TJP3_3, O95049): below the threshold |
| IPGKEFDTPL [PLCB1, Q9NQ66] | below the threshold | below the threshold | below the threshold | 3.59 | 5.1 | below the threshold | below the threshold | 3.96 | below the threshold | below the threshold | below the threshold | 3.51 | below the threshold | 3.56 | below the threshold | below the threshold | below the threshold | below the threshold | below the threshold | below the threshold | pKd (Inadl_9, Q8NI35): below the threshold; pKd (ARHGAP21, Q5T5U3): 3.58; pKd (MAGI1_1, Q96QZ7): below the threshold; pKd (TJP2_1, Q9UDY2): below the threshold; pKd (TJP3_3, O95049): below the threshold |
| HLRQQGSVEV [EPHB6, O15197] | below the threshold | below the threshold | 4.39 | below the threshold | below the threshold | 5.03 | below the threshold | below the threshold | 3.99 | below the threshold | below the threshold | 3.5 | below the threshold | 3.71 | below the threshold | below the threshold | 4.13 | 3.88 | below the threshold | below the threshold | pKd (Inadl_9, Q8NI35): 4.03; pKd (ARHGAP21, Q5T5U3): 4.16; pKd (MAGI1_1, Q96QZ7): below the threshold; pKd (TJP2_1, Q9UDY2): below the threshold; pKd (TJP3_3, O95049): below the threshold |
| TGLWKSETTV [ADGRA2, Q96PE1] | 3.72 | below the threshold | below the threshold | 3.85 | below the threshold | 4.98 | below the threshold | 4.55 | 3.57 | 4.47 | below the threshold | 4.94 | below the threshold | below the threshold | below the threshold | below the threshold | below the threshold | 3.56 | 3.93 | below the threshold | pKd (Inadl_9, Q8NI35): 3.75; pKd (ARHGAP21, Q5T5U3): 4.03; pKd (MAGI1_1, Q96QZ7): 3.55; pKd (TJP2_1, Q9UDY2): below the threshold; pKd (TJP3_3, O95049): below the threshold |

The next lines start with results.

| pKd (GRASP, Q7Z6J2) | pKd (RAPGEF6, Q8TEU7) | pKd (HTRA4, P83105) | pKd (MPP6, Q9NZW5) | pKd (NHERF2_2, Q15599) | pKd (LNX2_2, Q8N448) | pKd (Inadl_2, Q8NI35) | pKd (SNTB1, Q13884) | pKd (APBA1_2, Q02410) | pKd (DLG3_3, Q92796) | pKd (GRIP1_7, Q9Y3R0) | pKd (DLG4_1, P78352) | pKd (TJP1_3, Q07157) | pKd (NHERF4_1, Q86UT5-2) | pKd (NHERF4_4, Q86UT5) | pKd (PICK1, Q9NRD5) | pKd (GRID2IP_1, A4D2P6) | pKd (NOS1, P29475) | pKd (LIN7A, O14910) | pKd (APBA1_1, Q02410) | Binder | further results |
| --- | --- | --- | --- | --- | --- | --- | --- | --- | --- | --- | --- | --- | --- | --- | --- | --- | --- | --- | --- | --- | --- |
| 4.51 | below the threshold | below the threshold | 3.69 | 3.59 | 4.05 | below the threshold | 3.99 | 3.58 | 3.73 | below the threshold | 3.84 | below the threshold | below the threshold | below the threshold | below the threshold | below the threshold | below the threshold | below the threshold | below the threshold | NLQEHSTTSV [RSBN1, Q5VWQ0] | pKd (Inadl_9, Q8NI35): below the threshold; pKd (ARHGAP21, Q5T5U3): below the threshold; pKd (MAGI1_1, Q96QZ7): below the threshold; pKd (TJP2_1, Q9UDY2): below the threshold; pKd (TJP3_3, O95049): below the threshold |
| 3.98 | below the threshold | 3.5 | below the threshold | below the threshold | below the threshold | below the threshold | below the threshold | below the threshold | below the threshold | below the threshold | below the threshold | below the threshold | below the threshold | below the threshold | 3.99 | below the threshold | below the threshold | below the threshold | below the threshold | FTLPAESSEI [PLEKHG7, Q6ZR37] | pKd (Inadl_9, Q8NI35): below the threshold; pKd (ARHGAP21, Q5T5U3): below the threshold; pKd (MAGI1_1, Q96QZ7): below the threshold; pKd (TJP2_1, Q9UDY2): below the threshold; pKd (TJP3_3, O95049): below the threshold |
